Measurements: patent US20250179143A1 (CHILDREN S HOSPITAL OF PHILADELPHIA, published 2025)

Columns and labels:
[1] = molecular target: HLA-A*01:01/hb2m/STAPGJLEY (peptide-loaded) (human); experiment: cell-based or functional assay
[2] = molecular target: HLA-A*02:01/hb2m/KILGFVF(bF)V (human); experiment: cell-based or functional assay
[3] = molecular target: HLA-A*02:06/hb2m/KILGFVF(bF)V (human); experiment: cell-based or functional assay
[4] = molecular target: HLA-A*02:01/hb2m/KILGFVFJV (peptide-loaded) (human); experiment: SPR, peptide-loaded HLA-A*02:01

B1: hTAPBPR^RQ (K211R, R270Q) (other)
chain: KPHPAEGQWRAVDVVLDCFLAKDGAHRGALASSEDRARASLVLKQVPVLDDGSLEDFTDFQGGTLAQDDPPIIFEASVDLVQIPQAEALLHADCSGKEVTCEISRYFLQMTETTVKTAAWFMANMQVSGGGPSISLVMKTPRVTKNEALWHPTLNLPLSPQGTVRTAVEFQVMTQTQSLSFLLGSSASLDCGFSMAPGLDLISVEWRLQHRGRGQLVYSWTAGQGQAVRKGATLEPAQLGMARDASLTLPGLTIQDEGTYICQITTSLYQAQQIIQLNIQASPKVRLSLANEALLPTLICDIAGYYPLDVVVTWTREELGGSPAQVSGASFSSLRQSVAGTYSISSSLTAEPGSAGATYTCQVTHISLEEPLGASTQVVPPERR
notes: domain: luminal domain; As m1
kapp of fluorescent peptide binding at 5 uM chaperone (FP) [1]: 0.00014 s⁻¹
k2overall, fold against hTAPBPR [2]: ~60 fold
k2overall, fold against hTAPBPR [3]: ~9 fold
fold lower KD than hTAPBPR [4]: ~7 fold

B2: hTAPBPR^KRQ (R105K, K211R, R270Q) (other)
chain: KPHPAEGQWRAVDVVLDCFLAKDGAHRGALASSEDRARASLVLKQVPVLDDGSLEDFTDFQGGTLAQDDPPIIFEASVDLVQIPQAEALLHADCSGKEVTCEISKYFLQMTETTVKTAAWFMANMQVSGGGPSISLVMKTPRVTKNEALWHPTLNLPLSPQGTVRTAVEFQVMTQTQSLSFLLGSSASLDCGFSMAPGLDLISVEWRLQHRGRGQLVYSWTAGQGQAVRKGATLEPAQLGMARDASLTLPGLTIQDEGTYICQITTSLYQAQQIIQLNIQASPKVRLSLANEALLPTLICDIAGYYPLDVVVTWTREELGGSPAQVSGASFSSLRQSVAGTYSISSSLTAEPGSAGATYTCQVTHISLEEPLGASTQVVPPERR
notes: domain: luminal domain; As m1
kapp of fluorescent peptide binding at 5 uM chaperone (FP) [1]: 0.00013 s⁻¹
k2overall, fold against hTAPBPR [2]: ~60 fold
k2overall, fold against hTAPBPR [3]: ~9 fold
fold lower KD than hTAPBPR [4]: ~7 fold
